Test [1] concerns the target T1, recombinant IL-6 (Sinobiological-10395-HNAE) (UniProt P05231 30-212). Nature of the test: ELISA, cytokine coated. Background: ELISA stands for enzyme-linked immunosorbent assay.
Test [2] concerns the target T2, recombinant IL-27 (R&D systems, 2526-IL-010) (UniProt Q8NEV9 29-243; Q14213 21-229).
T2 sequence (looked up) 1: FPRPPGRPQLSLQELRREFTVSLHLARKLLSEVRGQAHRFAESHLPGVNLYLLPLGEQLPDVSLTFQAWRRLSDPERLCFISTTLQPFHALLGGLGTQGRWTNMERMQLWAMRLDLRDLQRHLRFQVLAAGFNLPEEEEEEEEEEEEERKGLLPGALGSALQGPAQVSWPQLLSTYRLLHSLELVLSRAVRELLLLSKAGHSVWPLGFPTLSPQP
T2 sequence (looked up) 2: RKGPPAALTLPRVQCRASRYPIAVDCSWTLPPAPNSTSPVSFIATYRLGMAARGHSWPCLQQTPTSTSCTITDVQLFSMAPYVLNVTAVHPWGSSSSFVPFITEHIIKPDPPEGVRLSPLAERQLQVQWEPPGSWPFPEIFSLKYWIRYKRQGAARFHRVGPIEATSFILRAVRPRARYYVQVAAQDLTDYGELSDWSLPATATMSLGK
Nature of the test: ELISA, cytokine coated.

The target of test [3] is T3, recombinant OSM (Genscript-z03132) (UniProt P13725 26-234, limits assumed).
T3 sequence (looked up): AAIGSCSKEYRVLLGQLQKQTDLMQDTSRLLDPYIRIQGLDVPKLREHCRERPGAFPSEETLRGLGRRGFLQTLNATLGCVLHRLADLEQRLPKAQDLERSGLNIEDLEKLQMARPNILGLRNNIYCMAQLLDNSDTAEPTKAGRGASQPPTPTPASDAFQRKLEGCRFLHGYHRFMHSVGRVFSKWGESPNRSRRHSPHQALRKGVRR
Nature of the test: ELISA, cytokine coated.

Test [4] addresses T4, recombinant CLC (R&D systems, 962-CL-050) (UniProt Q9UBD9 28-225).
T4 sequence (looked up): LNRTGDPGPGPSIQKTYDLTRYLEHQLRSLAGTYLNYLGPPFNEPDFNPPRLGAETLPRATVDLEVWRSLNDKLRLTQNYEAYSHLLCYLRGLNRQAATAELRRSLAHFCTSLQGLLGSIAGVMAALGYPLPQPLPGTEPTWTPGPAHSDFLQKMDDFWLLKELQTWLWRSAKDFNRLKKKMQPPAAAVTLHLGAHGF
Briefly: ELISA, cytokine coated.

For test [5], the target named is T5, recombinant LIF (Peprotech, 300-05) (UniProt P15018 23-202). Briefly: ELISA, cytokine coated.
T5 sequence (P15018 23-202 limits assumed): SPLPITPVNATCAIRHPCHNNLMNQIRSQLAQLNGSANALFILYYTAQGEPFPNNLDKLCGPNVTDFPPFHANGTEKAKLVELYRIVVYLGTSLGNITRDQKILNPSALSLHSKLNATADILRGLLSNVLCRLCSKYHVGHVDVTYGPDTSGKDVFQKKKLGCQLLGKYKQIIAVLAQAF
Test [6] has as its target T6, recombinant IL-31 (Peprotech, 200-31) (UniProt Q6EBC2 24-164).
T6 sequence (looked up): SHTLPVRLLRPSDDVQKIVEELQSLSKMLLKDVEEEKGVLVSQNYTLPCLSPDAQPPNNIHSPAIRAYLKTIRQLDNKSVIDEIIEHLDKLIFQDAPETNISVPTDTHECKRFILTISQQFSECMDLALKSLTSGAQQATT
Nature of the test: ELISA, cytokine coated.

Test [7] has as its target T7, recombinant CNTF (R&D systems, 257-NT-010) (UniProt P26441 2-200).
T7 sequence (looked up): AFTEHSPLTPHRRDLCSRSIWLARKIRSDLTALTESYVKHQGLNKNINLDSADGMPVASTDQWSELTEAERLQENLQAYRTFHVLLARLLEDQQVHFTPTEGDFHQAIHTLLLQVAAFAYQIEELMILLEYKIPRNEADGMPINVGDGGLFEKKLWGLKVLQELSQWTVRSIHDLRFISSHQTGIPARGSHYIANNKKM
Nature of the test: ELISA, cytokine coated.

Test [8] concerns the target T8, recombinant CT-1 (R&D systems, 612-CD-010) (UniProt Q16619 2-201, limits assumed).
T8 sequence (looked up): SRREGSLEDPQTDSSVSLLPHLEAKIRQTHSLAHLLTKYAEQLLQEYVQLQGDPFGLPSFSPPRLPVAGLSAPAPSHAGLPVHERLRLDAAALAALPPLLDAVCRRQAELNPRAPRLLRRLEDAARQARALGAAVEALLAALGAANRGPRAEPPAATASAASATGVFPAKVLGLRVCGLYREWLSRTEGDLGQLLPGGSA
Briefly: ELISA, cytokine coated.

Test [9] concerns the target T1, recombinant IL-6 …. Nature of the test: ELISA, cytokine coated. This is another data set of the same source.
For test [10], the target named is T2, recombinant IL-27 (R&D systems, …). Briefly: ELISA, cytokine coated. The source holds these as a separate data set.
Test [11] has as its target T3, recombinant OSM (Genscript-z03132). Nature of the test: ELISA, cytokine coated. The source holds these as a separate data set.
Test [12] concerns the target T4, recombinant CLC (R&D systems, …). Briefly: ELISA, cytokine coated. This is another data set of the same source.
Test [13] concerns the target T5, recombinant LIF (Peprotech, 300-05). Nature of the test: ELISA, cytokine coated. The source holds these as a separate data set.
The target in test [14] is T6, recombinant IL-31 (Peprotech, 200-31). Nature of the test: ELISA, cytokine coated. This is another data set of the same source.
Test [15] concerns the target T7, recombinant CNTF (R&D systems, …). Nature of the test: ELISA, cytokine coated. The source holds these as a separate data set.
Test [16] deals with T8, recombinant CT-1 (R&D systems, …). Briefly: ELISA, cytokine coated. The source holds these as a separate data set.
In test [17] the target is T9, recombinant IL-11 (LSBio, LS-G132887-10) (UniProt P20809 22-199).
T9 construct: also called IL-11 cytokine
T9 sequence (looked up): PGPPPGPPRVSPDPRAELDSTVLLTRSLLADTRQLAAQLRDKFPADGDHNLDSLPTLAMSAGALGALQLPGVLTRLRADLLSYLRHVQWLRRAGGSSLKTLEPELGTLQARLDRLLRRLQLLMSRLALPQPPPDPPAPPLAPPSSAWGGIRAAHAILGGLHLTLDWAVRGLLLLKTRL
Nature of the test: ELISA, cytokine coated.

In test [18] the target is T10, IL-11 protein (UniProt P20809 22-199, limits assumed).
T10 construct: also called IL-11 antigen
T10 sequence (looked up): T9 sequence (looked up)
Nature of the test: ELISA, monoclonal hybridoma supernatant on IL-11. The text has this:
(§1) Cell lines with high secretion of specific antibody were selected for expanded culture and cryopreservation.

Test [19] deals with T11, recombinant human protein antigen hu-IL-11-His tag (human, UniProt P20809 22-199).
T11 construct: Expressed in CHO, Ni column and Superdex75; not shown: His tag
T11 sequence (looked up): T9 sequence (looked up)
Briefly: BLI, IL-11 (His tag) on Ni-NTA sensor, antibody as analyte. The protocol: Bio-Layer Interferometry (BLI) was used for binding affinity determination. […] The analytes were diluted in 7 concentration gradients, the binding time was 60 s and the dissociation time was 1000 s. The buffer was 20 mM PBS, 0.15M NaCl, 0.1% BSA, 0.05% Tween 20, pH 7.
On the technique in general: Biolayer interferometry detects binding as a change in optical thickness at a sensor tip.

Test [20] deals with T10, IL-11 protein. Nature of the test: flow competition: IL-11 + antibody on IL-11R cells; lower = more blocking.
Text: as §1

The target of a further test is T12, IL-11-Fc protein (UniProt P20809 22-199, limits assumed).
T12 construct: also called IL-11 recombinant protein with Fc tag; not shown: Fc tag
T12 sequence (looked up): T9 sequence (looked up)
Briefly: flow competition: IL-11-Fc + antibody gradient on membrane-IL-11R CHO cells; 3-6A4 antibody. The text has this:
The secondary antibody used in the detection was a secondary antibody conjugated with a FITC fluorophore (Goat-anti-Fc-FITC) (Abcam, ab98529).

B1: 3-6A4 (antibody, human IgG1, kappa, V domains shown)
VH: QIQLVQSGPELKKPGETVKISCKASGYTFTTNGINWVKQAAGKGLKWMGWINTNTGEPTNAEELKGRFAFSLETSASTAYLQINNLKNEDAAIYFCAREGAFGLDYWGQGTSVTVSS
VL: SIVMTQSPKFLLVSAGDRVIITCKASQSVSNDVVWYQQKPGQSPKLLIYYGSHRNTGVPTRFTGSGYGTDFTFTISTVQAEDLAVYFCQQDFFSPWTFGGGTKLEIKR
notes: also called 3-6A4 antibody; 3-6A4 mAb
Consider B1, for which the binding result in test [1], in test [2], in [3], in test [4], in [5] and in [6] was “no binding” throughout. Also, the binding result in [7] and in test [8] was “no binding” each time. For the same molecule, the OD450 nm in test [9] was found to be 0.039; in [10], 0.035; in test [11], 0.102; in test [12], 0.042; in test [13], 0.084; in test [14], 0.088. The OD450 nm was 0.064 in test [15], 0.041 in test [16] and 1.88 in test [17]. The molecule further came in with an OD450 with IL-11 protein [18] of 1.58. In addition, the Kd (in general, the concentration at which binding is half-saturated) in test [19] worked out at 39.3 pM. Also, the koff (usually a measure of how fast the partners let go of each other) in test [19] came out at 4.16e-05 s⁻¹. Further, the kon – broadly, the second-order rate constant of association – in test [19] was found to be 1.06e+06 M⁻¹ s⁻¹. Further, in the test with IL-11 protein [20], the “FITC Mean” value is 3040. The IC50 (in general, the concentration at which inhibition is half-maximal) in the test with IL-11-Fc protein is about 7 µg/mL.

The values are drawn from US20230257458A1 (SUNSHINE LAKE PHARMA, published 2023).
